{"source": "paper PMC9805502", "biological_target": "HilD^Q39E,N44D,H95L mutant (recombinant) (Salmonella enterica serovar Typhimurium strain 14028s)", "experiment": "mass photometry"}
{"substance": "HilD^Q39E,N44D,H95L mutant (recombinant) (natural protein)", "values": [{"measurement": "stoichiometry N", "value": 2}]}
